As usually defined, the kcat is the maximal rate divided by the concentration of active sites. In general, kcat/Km refers to the second-order rate constant that governs catalysis at low substrate concentration. Broadly, the stoichiometry N is the number of molecules, sites or subunits per partner or assembly.

Where “and” joins values, the source holds several entries; their conditions need not be identical. Identical values can stand only once.

Data set [1] deals with NC(=O)c1ccc[n+]([C@@H]2O[C@H](COP(=O)(O)OP(=O)(O)OC[C@H]3O[C@@H](n4cnc5c(N)ncnc54)[C@H](OP(=O)(O)O)[C@@H]3O)[C@@H](O)[C@H]2O)c1. In words: purified protein. Conditions: assay conditions by cited earlier methods; co-substrate not given; SD in parentheses; crystal structure of complex with TCDCA also solved; varied: cofactor.
Data set [2] deals with the molecule itself. In words: SEC; purified CA 7α-HSDH in aqueous solution; standard proteins of 669, 440, 158, 75, 44, 29 and 13.7 kDa; the dimer fraction of the first run was collected and run again; the tetramer fractions were checked by MS. (In general: In gel filtration, larger molecules generally elute earlier.)

With CA 7α-HSDH (Clostridium sardiniense), in data set [1], the Km is 0.34 (0.01) mM, the kcat came out at 13.8 s⁻¹ and the specificity constant (kcat/Km) is 40100 M⁻¹ s⁻¹.

B1: 7α-hydroxysteroid dehydrogenase from Clostridium absonum (enzyme, UniProt G9FRD7 1-262, looked up)
chain: MKRLEGKVAIVTSSTRGIGRASAEALAKEGALVYLAARSEELANEVIADIKKQGGVAKFVYFNAREEETYTSMVEKVAEAEGRIDILVNNYGGTNVNLDKNLTAGDTDEFFRILKDNVQSVYLPAKAAIPHMEKVGGGSIVNISTIGSVVPDISRIAYCVSKSAINSLTQNIALQYARKNIRCNAVLPGLIGTRAALENMTDEFRDSFLGHVPLNRVGRPEDIANAVLYYASDDSGYVTGMIHEVAGGFALGTPQYSEYCPR
notes: 7α-hydroxysteroid dehydrogenase (CA 7α-HSDH), Clostridium absonum; the gene was cloned into pGEX-6p-1; Crystallised with NADP+ and TCDCA; also called CA 7α-HSDH; 7α-HSDH; source: E. coli BL21 (DE3), GST-fused from pGEX-6p-1, purified (monoQ, superdex 75)
As to B1, the “stoichiometry N” value in data set [2] is 2 and 4.
